In article PMC4267625, “Ubiquitin recognition by FAAP20 expands the complex interface beyond the canonical UBZ domain” (Nucleic Acids Research, 2014):
Numbering of substitutions follows the chain as printed. In names and notes the source's numbering stands.

B1: human FAAP20 UBZ (residues 140-180 of FAAP20 isoform 2), wild type (domain or fragment, UniProt Q6NZ36 140-180, looked up)
chain: GAAALRSCPMCQKEFAPRLTQLDVDSHLAQCLAESTEDVTW
notes: ends at the C-terminal W180; ZnSO4 was added at induction; 15N/13C-labelled for NMR; also called WT FAAP20; apo FAAP20; source: E. coli BL21 STAR (DE3), purified (Ni-NTA, TEV cleavage, second Ni-NTA, Superdex 75); not shown: His10, N-terminal, cleaved; GB1, N-terminal, cleaved
B2: human FAAP20 UBZ D164A (domain or fragment, UniProt Q6NZ36 140-180, looked up)
chain: B1 chain with D25A
notes: source: E. coli BL21 STAR (DE3), purified (Ni-NTA, TEV cleavage, second Ni-NTA, Superdex 75); not shown: His10, N-terminal, cleaved; GB1, N-terminal, cleaved
B3: human FAAP20 UBZ L171A (domain or fragment, UniProt Q6NZ36 140-180, looked up)
chain: B1 chain with L32A
notes: as for B2
B4: human FAAP20 UBZ A168Y (domain or fragment, UniProt Q6NZ36 140-180, looked up)
chain: B1 chain with A29Y
notes: as for B2
B5: human FAAP20 UBZ W180A (domain or fragment, UniProt Q6NZ36 140-180, looked up)
chain: B1 chain with W41A
notes: also called FAAP20 W180A mutant; source: E. coli BL21 STAR (DE3), purified (Ni-NTA, TEV cleavage, second Ni-NTA, Superdex 75); not shown: His10, N-terminal, cleaved; GB1, N-terminal, cleaved

target: T1, human ubiquitin, wild type (human, UniProt P0CG48 1-76); experiment: ITC; ubiquitin (2-3 mM) titrated into FAAP20 (0.2-0.3 mM); 25 mM sodium phosphate, 100 mM KCl, pH 7.0; 25°C; 28 injections of 10 μl; one-site binding fit; conditions: both partners purified
T1 construct: ubiquitin, human; the mature ubiquitin unit cut from its precursor; also called WT ubiquitin; source: E. coli BL21 STAR (DE3), purified (Ni-NTA, thrombin cleavage, benzamidine column, second Ni-NTA, Superdex 75); not shown: His6, N-terminal, cleaved

Kd [µM]	Binder
9.26	B1
> 600	B2
529	B3
> 600	B4
> 600	B5
